Starred links: 1 amine or outer side, 2 acyl side, 3 side chain; linkers in the order of their positions; H or OH if unused. Non-standard residues stand in square brackets, D forms with d. Groups on a side chain read outwards from the residue. No end group written: not given here. *: point of attachment. C20 diacid = O=C(O)CCCCCCCCCCCCCCCCCCC(=O)*; γGlu = O=C(O)[C@H](CCC(=O)[*:2])N[*:1]; αMeF = C[C@](N)(Cc1ccccc1)C(=O)O; 4Pal = N[C@@H](Cc1ccncc1)C(=O)O; αMeL = CC(C)C[C@](C)(N)C(=O)O; AEEA = NCCOCCOCC(=O)O; Aib = CC(C)(N)C(=O)O

Holding throughout (assay): cell-based or functional assay
One assay deals with human glucagon receptor (human, UniProt P47871 26-477).
human glucagon receptor, sequence (P47871 26-477): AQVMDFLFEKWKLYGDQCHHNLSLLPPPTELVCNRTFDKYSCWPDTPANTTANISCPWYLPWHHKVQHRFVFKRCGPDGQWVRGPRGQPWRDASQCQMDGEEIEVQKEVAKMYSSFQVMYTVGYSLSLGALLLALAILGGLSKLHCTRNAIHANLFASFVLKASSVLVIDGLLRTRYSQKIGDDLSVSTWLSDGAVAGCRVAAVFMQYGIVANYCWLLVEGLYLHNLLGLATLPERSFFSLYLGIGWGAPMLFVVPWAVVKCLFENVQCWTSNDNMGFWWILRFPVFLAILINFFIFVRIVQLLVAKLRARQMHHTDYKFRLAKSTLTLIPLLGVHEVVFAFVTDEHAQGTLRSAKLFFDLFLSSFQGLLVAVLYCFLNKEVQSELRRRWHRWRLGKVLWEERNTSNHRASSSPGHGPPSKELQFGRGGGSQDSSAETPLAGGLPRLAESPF
Assay [1] has as its target T1, human glucose-dependent insulinotropic peptide receptor (human, UniProt P48546 22-466).
T1 sequence (looked up): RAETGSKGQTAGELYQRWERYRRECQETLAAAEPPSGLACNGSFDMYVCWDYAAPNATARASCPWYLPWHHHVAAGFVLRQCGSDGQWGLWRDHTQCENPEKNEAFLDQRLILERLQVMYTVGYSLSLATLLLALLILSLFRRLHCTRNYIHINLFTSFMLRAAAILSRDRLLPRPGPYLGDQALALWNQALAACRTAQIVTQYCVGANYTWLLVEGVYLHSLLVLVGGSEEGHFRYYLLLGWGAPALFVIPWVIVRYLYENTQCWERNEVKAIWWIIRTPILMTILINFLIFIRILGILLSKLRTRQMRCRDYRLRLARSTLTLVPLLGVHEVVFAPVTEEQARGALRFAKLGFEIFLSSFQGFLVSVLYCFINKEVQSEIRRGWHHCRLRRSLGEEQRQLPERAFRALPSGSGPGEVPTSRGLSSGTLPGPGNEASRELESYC

In a further assay the target is human GLP-1 receptor (human, UniProt P43220 24-463).

B1: Example 58 (peptide)
peptide: Y[Aib]EGTFISDYSI[αMeL]LDKK([AEEA-AEEA-γGlu-C20 diacid])HQ[Aib]EFVE[4Pal]LLATGPSSGAPPPS-NH2
modifications: N-terminus assumed
SMILES: CC[C@H](C)[C@H](NC(=O)[C@H](Cc1ccccc1)NC(=O)[C@@H](NC(=O)CNC(=O)[C@H](CCC(=O)O)NC(=O)C(C)(C)NC(=O)[C@@H](N)Cc1ccc(O)cc1)[C@@H](C)O)C(=O)N[C@@H](CO)C(=O)N[C@@H](CC(=O)O)C(=O)N[C@@H](Cc1ccc(O)cc1)C(=O)N[C@@H](CO)C(=O)N[C@H](C(=O)N[C@@](C)(CC(C)C)C(=O)N[C@@H](CC(C)C)C(=O)N[C@@H](CC(=O)O)C(=O)N[C@@H](CCCCN)C(=O)N[C@@H](CCCCNC(=O)COCCOCCNC(=O)COCCOCCNC(=O)CC[C@H](NC(=O)CCCCCCCCCCCCCCCCCCC(=O)O)C(=O)O)C(=O)N[C@@H](Cc1c[nH]cn1)C(=O)N[C@@H](CCC(N)=O)C(=O)NC(C)(C)C(=O)N[C@@H](CCC(=O)O)C(=O)N[C@@H](Cc1ccccc1)C(=O)N[C@H](C(=O)N[C@@H](CCC(=O)O)C(=O)N[C@@H](Cc1ccncc1)C(=O)N[C@@H](CC(C)C)C(=O)N[C@@H](CC(C)C)C(=O)N[C@@H](C)C(=O)N[C@H](C(=O)NCC(=O)N1CCC[C@H]1C(=O)N[C@@H](CO)C(=O)N[C@@H](CO)C(=O)NCC(=O)N[C@@H](C)C(=O)N1CCC[C@H]1C(=O)N1CCC[C@H]1C(=O)N1CCC[C@H]1C(=O)N[C@@H](CO)C(N)=O)[C@@H](C)O)C(C)C)[C@@H](C)CC
Consider B1, for which, in the assay with human glucagon receptor, the “hGcgR cAMP Rel EC50” value is more than 5000 nM. The “hGIPR cAMP Rel EC50” value in assay [1] stood at 0.0183 nM. Also, the “hGLP1R cAMP Rel EC50” value with human GLP-1 receptor was more than 5000 nM.

B2: Example 54 (peptide)
peptide: Y[Aib]EGTFISDYSI[αMeL]LDKK([AEEA-AEEA-γGlu-C20 diacid])HQ[Aib]DFVEWLLAGGPSSGAPPPS-NH2
modifications: N-terminus assumed
SMILES: CC[C@H](C)[C@H](NC(=O)[C@H](Cc1ccccc1)NC(=O)[C@@H](NC(=O)CNC(=O)[C@H](CCC(=O)O)NC(=O)C(C)(C)NC(=O)[C@@H](N)Cc1ccc(O)cc1)[C@@H](C)O)C(=O)N[C@@H](CO)C(=O)N[C@@H](CC(=O)O)C(=O)N[C@@H](Cc1ccc(O)cc1)C(=O)N[C@@H](CO)C(=O)N[C@H](C(=O)N[C@@](C)(CC(C)C)C(=O)N[C@@H](CC(C)C)C(=O)N[C@@H](CC(=O)O)C(=O)N[C@@H](CCCCN)C(=O)N[C@@H](CCCCNC(=O)COCCOCCNC(=O)COCCOCCNC(=O)CC[C@H](NC(=O)CCCCCCCCCCCCCCCCCCC(=O)O)C(=O)O)C(=O)N[C@@H](Cc1c[nH]cn1)C(=O)N[C@@H](CCC(N)=O)C(=O)NC(C)(C)C(=O)N[C@@H](CC(=O)O)C(=O)N[C@@H](Cc1ccccc1)C(=O)N[C@H](C(=O)N[C@@H](CCC(=O)O)C(=O)N[C@@H](Cc1c[nH]c2ccccc12)C(=O)N[C@@H](CC(C)C)C(=O)N[C@@H](CC(C)C)C(=O)N[C@@H](C)C(=O)NCC(=O)NCC(=O)N1CCC[C@H]1C(=O)N[C@@H](CO)C(=O)N[C@@H](CO)C(=O)NCC(=O)N[C@@H](C)C(=O)N1CCC[C@H]1C(=O)N1CCC[C@H]1C(=O)N1CCC[C@H]1C(=O)N[C@@H](CO)C(N)=O)C(C)C)[C@@H](C)CC
Turning to B2, the “hGcgR cAMP Rel EC50” value in the assay with human glucagon receptor is more than 5000 nM. For the same molecule, in assay [1], the “hGIPR cAMP Rel EC50” value amounted to 0.054 nM. Also, the “hGLP1R cAMP Rel EC50” value in the assay with human GLP-1 receptor was more than 5000 nM.

B3: Example 55 (peptide)
peptide: YXEGTXISDYSIXLDKKHQXDFVEXLLAGGPSSGAPPPS
modifications: Aib2; Iva6; αMeL13; K17((2-[2-(2-Amino-ethoxy)-ethoxy]-acetyl)2-(γ-Glu)-CO-(CH2)18-CO2H); Aib20; 4-Pal25; C-terminal amide
As to B3, in the assay with human glucagon receptor, the “hGcgR cAMP Rel EC50” value is more than 5000 nM. In assay [1], the “hGIPR cAMP Rel EC50” value is 0.017 nM. Besides, the “hGLP1R cAMP Rel EC50” value in the assay with human GLP-1 receptor is more than 5000 nM.

B4: Example 57 (peptide)
peptide: Y[Aib]EGTFISDYSI[αMeL]LDKK([AEEA-AEEA-γGlu-C20 diacid])HQ[Aib]EFVE[4Pal]LLAQGPSSGAPPPS-NH2
modifications: N-terminus assumed
SMILES: CC[C@H](C)[C@H](NC(=O)[C@H](Cc1ccccc1)NC(=O)[C@@H](NC(=O)CNC(=O)[C@H](CCC(=O)O)NC(=O)C(C)(C)NC(=O)[C@@H](N)Cc1ccc(O)cc1)[C@@H](C)O)C(=O)N[C@@H](CO)C(=O)N[C@@H](CC(=O)O)C(=O)N[C@@H](Cc1ccc(O)cc1)C(=O)N[C@@H](CO)C(=O)N[C@H](C(=O)N[C@@](C)(CC(C)C)C(=O)N[C@@H](CC(C)C)C(=O)N[C@@H](CC(=O)O)C(=O)N[C@@H](CCCCN)C(=O)N[C@@H](CCCCNC(=O)COCCOCCNC(=O)COCCOCCNC(=O)CC[C@H](NC(=O)CCCCCCCCCCCCCCCCCCC(=O)O)C(=O)O)C(=O)N[C@@H](Cc1c[nH]cn1)C(=O)N[C@@H](CCC(N)=O)C(=O)NC(C)(C)C(=O)N[C@@H](CCC(=O)O)C(=O)N[C@@H](Cc1ccccc1)C(=O)N[C@H](C(=O)N[C@@H](CCC(=O)O)C(=O)N[C@@H](Cc1ccncc1)C(=O)N[C@@H](CC(C)C)C(=O)N[C@@H](CC(C)C)C(=O)N[C@@H](C)C(=O)N[C@@H](CCC(N)=O)C(=O)NCC(=O)N1CCC[C@H]1C(=O)N[C@@H](CO)C(=O)N[C@@H](CO)C(=O)NCC(=O)N[C@@H](C)C(=O)N1CCC[C@H]1C(=O)N1CCC[C@H]1C(=O)N1CCC[C@H]1C(=O)N[C@@H](CO)C(N)=O)C(C)C)[C@@H](C)CC
B4: in the assay with human glucagon receptor, the “hGcgR cAMP Rel EC50” value turned out to be 886 nM. The “hGIPR cAMP Rel EC50” value in assay [1] is 0.0177 nM. Also, the “hGLP1R cAMP Rel EC50” value in the assay with human GLP-1 receptor is more than 5000 nM.

B5: Example 53 (peptide)
peptide: Y[Aib]EGTFISDYSI[αMeL]LDKK([AEEA-AEEA-γGlu-C20 diacid])HQ[Aib]DFVEYLLAGGPSSGAPPPS-NH2
modifications: N-terminus assumed
SMILES: CC[C@H](C)[C@H](NC(=O)[C@H](Cc1ccccc1)NC(=O)[C@@H](NC(=O)CNC(=O)[C@H](CCC(=O)O)NC(=O)C(C)(C)NC(=O)[C@@H](N)Cc1ccc(O)cc1)[C@@H](C)O)C(=O)N[C@@H](CO)C(=O)N[C@@H](CC(=O)O)C(=O)N[C@@H](Cc1ccc(O)cc1)C(=O)N[C@@H](CO)C(=O)N[C@H](C(=O)N[C@@](C)(CC(C)C)C(=O)N[C@@H](CC(C)C)C(=O)N[C@@H](CC(=O)O)C(=O)N[C@@H](CCCCN)C(=O)N[C@@H](CCCCNC(=O)COCCOCCNC(=O)COCCOCCNC(=O)CC[C@H](NC(=O)CCCCCCCCCCCCCCCCCCC(=O)O)C(=O)O)C(=O)N[C@@H](Cc1c[nH]cn1)C(=O)N[C@@H](CCC(N)=O)C(=O)NC(C)(C)C(=O)N[C@@H](CC(=O)O)C(=O)N[C@@H](Cc1ccccc1)C(=O)N[C@H](C(=O)N[C@@H](CCC(=O)O)C(=O)N[C@@H](Cc1ccc(O)cc1)C(=O)N[C@@H](CC(C)C)C(=O)N[C@@H](CC(C)C)C(=O)N[C@@H](C)C(=O)NCC(=O)NCC(=O)N1CCC[C@H]1C(=O)N[C@@H](CO)C(=O)N[C@@H](CO)C(=O)NCC(=O)N[C@@H](C)C(=O)N1CCC[C@H]1C(=O)N1CCC[C@H]1C(=O)N1CCC[C@H]1C(=O)N[C@@H](CO)C(N)=O)C(C)C)[C@@H](C)CC
Regarding B5, the “hGcgR cAMP Rel EC50” value in the assay with human glucagon receptor is 344 nM. The “hGIPR cAMP Rel EC50” value in assay [1] was determined as 0.0194 nM. Also, the “hGLP1R cAMP Rel EC50” value with human GLP-1 receptor is more than 5000 nM.

B6: Example 56 (peptide)
peptide: Y[Aib]EGTFISDYSI[αMeL]LDKK([AEEA-AEEA-γGlu-C20 diacid])HQ[Aib]D[αMeF]VE[4Pal]LLAGGPSSGAPPPS-NH2
modifications: N-terminus assumed
SMILES: CC[C@H](C)[C@H](NC(=O)[C@H](Cc1ccccc1)NC(=O)[C@@H](NC(=O)CNC(=O)[C@H](CCC(=O)O)NC(=O)C(C)(C)NC(=O)[C@@H](N)Cc1ccc(O)cc1)[C@@H](C)O)C(=O)N[C@@H](CO)C(=O)N[C@@H](CC(=O)O)C(=O)N[C@@H](Cc1ccc(O)cc1)C(=O)N[C@@H](CO)C(=O)N[C@H](C(=O)N[C@@](C)(CC(C)C)C(=O)N[C@@H](CC(C)C)C(=O)N[C@@H](CC(=O)O)C(=O)N[C@@H](CCCCN)C(=O)N[C@@H](CCCCNC(=O)COCCOCCNC(=O)COCCOCCNC(=O)CC[C@H](NC(=O)CCCCCCCCCCCCCCCCCCC(=O)O)C(=O)O)C(=O)N[C@@H](Cc1c[nH]cn1)C(=O)N[C@@H](CCC(N)=O)C(=O)NC(C)(C)C(=O)N[C@@H](CC(=O)O)C(=O)N[C@@](C)(Cc1ccccc1)C(=O)N[C@H](C(=O)N[C@@H](CCC(=O)O)C(=O)N[C@@H](Cc1ccncc1)C(=O)N[C@@H](CC(C)C)C(=O)N[C@@H](CC(C)C)C(=O)N[C@@H](C)C(=O)NCC(=O)NCC(=O)N1CCC[C@H]1C(=O)N[C@@H](CO)C(=O)N[C@@H](CO)C(=O)NCC(=O)N[C@@H](C)C(=O)N1CCC[C@H]1C(=O)N1CCC[C@H]1C(=O)N1CCC[C@H]1C(=O)N[C@@H](CO)C(N)=O)C(C)C)[C@@H](C)CC
On to B6, for which the “hGcgR cAMP Rel EC50” value with human glucagon receptor was more than 5000 nM. In assay [1], the “hGIPR cAMP Rel EC50” value worked out at 0.0169 nM. Besides, in the assay with human GLP-1 receptor, the “hGLP1R cAMP Rel EC50” value was more than 5000 nM.

Values taken from US20210032299A1 (Eli Lilly, published 2021).
